Results published in paper PMC10992505, “Customized exogenous ferredoxin functions as an efficient electron carrier” (Bioresources and Bioprocessing, 2021).

B1: Drosophila melanogaster Fdx2 (DmFdx2) (natural protein, UniProt Q8SZA8 30-152, looked up)
chain: STGLALKTKDVVNITFVRANGDKIKTSGKVGDSLLDVVVNNNVDLDGFGACEGTLTCSTCHLIFKTSDFEKLPDKPGDEELDMLDLAYELTDTSRLGCQITLSKDMEGLEVHVPSTINDARAA
notes: Drosophila melanogaster ferredoxin 2 (Fdx2), plant-type [2Fe-2S] ferredoxin; Carries a [2Fe-2S] cluster; Cloning into pET28a at NdeI would place the His6 tag at the N-terminus (surmised); also called free Fdx; plant-type Fdx; source: E. coli BL21(DE3), purified (Ni-NTA, Resource Q anion exchange)
B3: KshA, Rieske-type oxygenase of 3-ketosteroid-9-hydroxylase from Rhodococcus erythropolis (enzyme)
chain: MALGTGPLTTTDASTQSGAGEEIREIEAAAPPARFARGWHCLGLSNTYRDGQPHQIEAFGTSLVVFADSKGDIKILDAYCRHMGGNLAHGTVKGDSIACPFHDWRWGGNGKCTAIPYARRVPPLAKTRAWTTLEKNGQLFVWHDPQGNPPPAEVTIPDIEGFGSDEWSDWSWNTLTIEGSHCREIVDNVVDMAHFFYVHYSFPKYFKNIFEGHVASQYMESVGREDIISGTNYGDPNAVLRSDASYFGPSYMIDWIKSEANGQIIETVLINCHYPISNNAFVLQYGAMVKKLPGMDDESTAAMAAQFTEGVEMGFLQDVEIWKNKAPIDNPLLSEEDGPVYQLRRWYNQFYTDVENVTEDMTKRFEFEIDTTRAVESWKREVAENVAARDAQALETTS

Tests used:
[1] = test system: T1, TDO (TDO_R; toluene 2,3-dioxygenase reductase with TDO-Fdx); details: electron acceptor not stated; MTDO, plant-type cluster; fusion numbering
T1 construct: gene todA

[2] = biological target: T2, PRF (CYP116B46 reductase domain, V465-L779) (Tepidiphilus thermophilus, UniProt A0A0K6ITW2, C736H/C766H, form not given); assay: NADH oxidation, absorbance […] nm; assay type: biochemical
T2 construct: gene Ga0061068_103196
T2 sequence (A0A0K6ITW2 entry or part of it C736H/C766H, form open): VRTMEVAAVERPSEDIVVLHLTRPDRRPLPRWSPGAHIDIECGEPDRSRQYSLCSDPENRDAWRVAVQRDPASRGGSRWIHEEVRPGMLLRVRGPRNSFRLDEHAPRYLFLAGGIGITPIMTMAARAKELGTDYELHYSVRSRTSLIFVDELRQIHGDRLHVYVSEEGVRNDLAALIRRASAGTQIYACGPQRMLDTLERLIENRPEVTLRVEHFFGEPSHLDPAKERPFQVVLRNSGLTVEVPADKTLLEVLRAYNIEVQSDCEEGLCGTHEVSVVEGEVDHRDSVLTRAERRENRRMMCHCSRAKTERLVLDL

[3] = biological target: B3; assay: ITC; 0.2 mM DmFdx2 in the syringe, 2 uL injections into 0.02 mM KshA or PRF in the cell; 20 mM HEPES pH 7.4, 25 °C; one-site binding model; details: both partners purified
[4] = biological target: PRF, reductase domain and Fdx (V465-L779) of Tepidiphilus thermophilus self-sufficient P450 CYP116B46 (Tepidiphilus thermophilus); assay: as above
[5] = substrate: NC(=O)C1=CN([C@@H]2O[C@H](COP(=O)(O)OP(=O)(O)OC[C@H]3O[C@@H](n4cnc5c(N)ncnc54)[C@H](O)[C@@H]3O)[C@@H](O)[C@H]2O)C=CC1; assay: purified protein; assay type: biochemical, Tepidiphilus thermophilus
[6] = biological target: B1; assay: ITC; 0.2 mM DmFdx2 in the syringe, 2 uL injections into 0.02 mM KshA or PRF in the cell; 20 mM HEPES pH 7.4, 25 °C; one-site binding model; details: both partners purified

Work on `NC(=O)C1=CN([C@@H]2O[C@H](COP(=O)(O)OP(=O)(O)OC[C@H]3O[C@@H](n4cnc5c(N)ncnc54)[C@H](O)[C@@H]3O)[C@@H](O)[C@H]2O)C=CC1` [NADH] yielded a Km [1] of 63.5 ± 2.95 µM and a Km [2] of 63.1 ± 2.37 µM.

With B1 the dH [3] was -1.43 ± 0.0311 kcal/mol, the “stoichiometry N” value [3] was 0.4 ± 0.02 and the Ka [4] was 1.5e+07 M⁻¹. For the same molecule, the dH [4] was -1.91 kcal/mol and the stoichiometry N [4] was 0.75.

B2: (Tepidiphilus thermophilus) (protein)
chain: VRTMEVAAVERPSEDIVVLHLTRPDRRPLPRWSPGAHIDIECGEPDRSRQYSLCSDPENRDAWRVAVQRDPASRGGSRWIHEEVRPGMLLRVRGPRNSFRLDEHAPRYLFLAGGIGITPIMTMAARAKELGTDYELHYSVRSRTSLIFVDELRQIHGDRLHVYVSEEGVRNDLAALIRRASAGTQIYACGPQRMLDTLERLIENRPEVTLRVEHFFGEPSHLDPAKERPFQVVLRNSGLTVEVPADKTLLEVLRAYNIEVQSDCEEGLCGTCEVSVVEGEVDHRDSVLTRAERRENRRMMCCCSRAKTERLVLDL
In the case of B2, the Km [5] is reported as 39.11 ± 1.49 µM, the kcat [5] is reported as 66.43 ± 0.34 s⁻¹ and the kcat/Km [5] is reported as 1.7e+06 M⁻¹ s⁻¹.

B3 showed a Ka [6] of 2.1e+07 M⁻¹.
